The target in assay [1] is T1, fibrinogen (UniProt P02671 20-629; P02675 31-491; P02679 27-437, limits assumed).
T1 construct: Biotinylated and immobilised through streptavidin for ELISA
T1 sequence (looked up) 1: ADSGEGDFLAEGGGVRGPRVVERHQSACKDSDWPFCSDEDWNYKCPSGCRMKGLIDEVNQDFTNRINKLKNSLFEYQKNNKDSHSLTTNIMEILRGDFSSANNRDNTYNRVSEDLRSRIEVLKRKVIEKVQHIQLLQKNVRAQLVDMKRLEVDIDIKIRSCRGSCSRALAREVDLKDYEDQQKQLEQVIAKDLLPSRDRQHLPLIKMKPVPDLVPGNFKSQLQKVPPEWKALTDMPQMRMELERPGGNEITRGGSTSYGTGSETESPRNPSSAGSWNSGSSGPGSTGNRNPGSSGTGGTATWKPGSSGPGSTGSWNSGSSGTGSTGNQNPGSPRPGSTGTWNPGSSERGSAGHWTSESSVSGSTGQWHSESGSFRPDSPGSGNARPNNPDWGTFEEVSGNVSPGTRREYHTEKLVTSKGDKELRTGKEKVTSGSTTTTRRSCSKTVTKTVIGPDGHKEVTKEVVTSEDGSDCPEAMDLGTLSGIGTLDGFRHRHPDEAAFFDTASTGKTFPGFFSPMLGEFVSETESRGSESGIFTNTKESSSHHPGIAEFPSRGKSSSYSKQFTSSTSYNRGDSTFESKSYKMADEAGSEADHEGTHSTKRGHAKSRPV
T1 sequence (looked up) 2: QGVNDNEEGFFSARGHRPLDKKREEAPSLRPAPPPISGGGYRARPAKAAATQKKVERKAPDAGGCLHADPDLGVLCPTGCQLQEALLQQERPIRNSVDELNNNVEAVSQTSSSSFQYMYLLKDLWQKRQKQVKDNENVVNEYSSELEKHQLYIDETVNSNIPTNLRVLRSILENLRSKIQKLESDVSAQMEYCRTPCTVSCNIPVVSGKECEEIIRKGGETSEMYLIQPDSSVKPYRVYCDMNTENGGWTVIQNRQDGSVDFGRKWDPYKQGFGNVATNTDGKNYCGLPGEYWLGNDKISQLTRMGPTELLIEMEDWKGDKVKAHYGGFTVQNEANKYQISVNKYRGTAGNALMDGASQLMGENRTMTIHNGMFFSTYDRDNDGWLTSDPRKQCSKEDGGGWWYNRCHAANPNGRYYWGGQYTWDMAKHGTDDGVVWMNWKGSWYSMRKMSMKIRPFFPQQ
T1 sequence (looked up) 3: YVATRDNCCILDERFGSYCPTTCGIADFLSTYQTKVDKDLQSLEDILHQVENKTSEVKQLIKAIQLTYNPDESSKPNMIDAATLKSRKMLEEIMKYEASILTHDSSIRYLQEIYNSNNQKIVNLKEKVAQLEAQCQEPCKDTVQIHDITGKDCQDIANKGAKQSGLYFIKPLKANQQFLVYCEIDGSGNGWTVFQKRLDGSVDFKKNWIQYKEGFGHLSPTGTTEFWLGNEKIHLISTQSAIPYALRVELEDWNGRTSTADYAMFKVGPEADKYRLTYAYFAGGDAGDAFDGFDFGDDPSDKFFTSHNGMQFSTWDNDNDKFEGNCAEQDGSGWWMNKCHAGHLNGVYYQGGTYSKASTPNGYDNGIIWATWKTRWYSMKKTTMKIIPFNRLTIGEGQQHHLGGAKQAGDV
The assay is described as follows: phage ELISA on immobilised fibrinogen. Here is the method:
After five rounds of selection, the eluted phage were propagated and a portion plated to isolate phage plaques arising from individual clones. Ninety such clones were selected randomly, propagated, and tested individually for binding to fibrin in a dried fibrin plate assay. Dried fibrin plates were prepared as described above for the library screening. Phage samples (˜10⁹ phage each) were incubated in the dried fibrin plate wells in binding buffer (50 mM Tris, 150 mM NaCl, 2 mM CaCl₂, 0.05% Tween-20) containing 0.1% HSA. After 1 hour, the plates were washed 5 times with binding buffer. Anti-M13 antibody conjugated to horseradish peroxidase (Pharmacia) was added at 1/5000 dilution in binding buffer to the wells and incubated with the fibrin for 1 hour. The wells were again washed 5 times with binding buffer and the presence of the antibody/phage/fibrin complex was measured with HRP calorimetric reagents (3,3′,5,5′-tetramethylbenzidine (TMB) and […]). A high absorbance at 595 nm (due to oxidized TMB) was indicative of a tight phage/fibrin interaction, and phage clones corresponding to those wells were identified as bearing fibrin-binding moieties.
These fibrin-binding positive clones were subjected to several secondary ELISA assays. These assays followed a similar protocol to that detailed above for the dried fibrin ELISA assay, the only variations being the method of target immobilization and the omission of HSA from binding and wash buffers. A screen against DD(E) acted as a further confirmation of fibrin binding activity. […] Finally, ELISAs to assay binding to immobilized HSA (passively bound to the polystyrene plate) and a target-free microtiter plate were controls to eliminate phage that bound promiscuously or nonspecifically.
The ELISAs were performed as described above.
(ELISA stands for enzyme-linked immunosorbent assay.)

Assay [2] has as its target DD(E), soluble fibrin-derived polypeptide (complex of DD dimer with the central E domain of fibrin) (human) (UniProt P02671). The assay is described as follows: fluorescence polarization (anisotropy), fluorescein-labeled peptide with DD(E). For orientation: In fluorescence polarisation assays a small probe gives low polarisation when free and higher when bound to something large.

For assay [3] the target is unchanged. Kind of assay: fluorescence anisotropy (polarization): fluorescein-labeled peptide titrated with DD(E) protein.
Assay [4] addresses T2, fibrin (UniProt P02671 36-629; P02675 45-491; P02679 27-437, limits assumed).
T2 construct: Polymerised fibrin formed on 96-well plates from fibrinogen and thrombin; also called dried fibrin; fibrin target
T2 sequence (looked up) 1: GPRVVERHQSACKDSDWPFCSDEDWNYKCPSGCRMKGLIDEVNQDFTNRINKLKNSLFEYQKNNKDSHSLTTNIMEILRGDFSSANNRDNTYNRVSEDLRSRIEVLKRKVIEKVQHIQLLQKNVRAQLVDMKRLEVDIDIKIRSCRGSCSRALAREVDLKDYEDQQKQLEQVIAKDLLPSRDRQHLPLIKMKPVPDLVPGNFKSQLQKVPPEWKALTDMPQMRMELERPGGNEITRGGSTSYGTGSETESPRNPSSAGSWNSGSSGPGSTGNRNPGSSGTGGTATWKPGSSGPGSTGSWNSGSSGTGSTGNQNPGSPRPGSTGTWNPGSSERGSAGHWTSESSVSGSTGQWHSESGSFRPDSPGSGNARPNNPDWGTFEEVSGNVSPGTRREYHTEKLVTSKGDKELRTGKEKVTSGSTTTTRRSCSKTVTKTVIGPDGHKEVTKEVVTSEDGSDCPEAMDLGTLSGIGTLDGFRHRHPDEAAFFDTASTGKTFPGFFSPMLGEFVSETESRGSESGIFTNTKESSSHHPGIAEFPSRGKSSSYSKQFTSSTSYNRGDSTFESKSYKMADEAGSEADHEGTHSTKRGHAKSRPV
T2 sequence (looked up) 2: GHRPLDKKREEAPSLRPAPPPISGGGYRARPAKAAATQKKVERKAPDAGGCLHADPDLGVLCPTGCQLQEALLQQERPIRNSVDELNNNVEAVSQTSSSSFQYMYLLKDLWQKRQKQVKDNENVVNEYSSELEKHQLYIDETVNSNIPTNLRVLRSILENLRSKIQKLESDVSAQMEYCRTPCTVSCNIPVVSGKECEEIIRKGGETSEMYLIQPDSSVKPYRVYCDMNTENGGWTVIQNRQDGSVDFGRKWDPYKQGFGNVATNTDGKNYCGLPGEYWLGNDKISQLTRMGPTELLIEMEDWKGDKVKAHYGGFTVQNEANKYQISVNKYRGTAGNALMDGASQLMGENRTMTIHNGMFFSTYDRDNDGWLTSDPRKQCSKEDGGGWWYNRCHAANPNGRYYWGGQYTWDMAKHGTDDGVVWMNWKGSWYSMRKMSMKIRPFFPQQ
T2 sequence (looked up) 3: T1 sequence (looked up) 3
The assay is described as follows: equilibrium binding to dried fibrin plates, free peptide measured by mass spectrometry.
Method: A fibrinogen solution was prepared at 10 mg/ml (or at twice the concentration of fibrin desired) in TBS buffer (50 mM Tris, 150 mM NaCl, pH 7.4). The fibrinogen solution typically contained ˜17 mM citrate. Subsequently, a solution was prepared containing 2 U/ml thrombin, 20 mM CaCl₂, and 5 mM ε-aminocaproic acid in TBS. The fibrinogen solution and thrombin solution were mixed 1:1 in the wells of a 96-well plate, aliquoting 50 μL of each solution in each well (total volume=100 μL). The plates were evaporated to dryness overnight at 37° C. The polypeptide to be tested, dissolved in water, was added to each well at concentrations between 1-200 μM. […] The plate containing the peptide and (rehydrated) dried fibrin was covered and incubated at 37° C. on a shaker table for 2 hours.
The supernatant in each well was removed by pipette and the concentration of the polypeptide was measured by mass spectrometry. The ion current detected at the mass of the peptide was monitored after injection of a sample into the mass spectrometer. The area-under-the-peak was quantified and compared to standards of known concentration. The concentration of peptide in the supernatant is equal to the concentration of free peptide. The concentration of bound peptide was determined by subtracting the concentration of free peptide from the total (starting) concentration. […]

What is called Kd is the concentration at which binding is half-saturated.

Ends that are not written are not given here. fluorescein = fluorescein label on the lysine side chain

Take WMMCPMSEWLYCWSA [phage isolate 002-36-A02]: the binding result in assay [1] was “no binding”.

B1: synthetic fibrin-binding peptide DX-304 (peptide)
peptide: Ac-WAPCQEEPWLFCFHGGGGK(fluorescein)-NH2
modifications: not fully specified; printed as Ac-WAPCQEEPWLFCFHGGGGK(fluorescein)-NH2; cysteine pairing not given here
In the case of B1, the dissociation constant Kd in assay [2] stood at 400 nM; in assay [3], 350 nM.

As to WKACPGEDWLFCWGS [phage isolate 002-37-H02], in assay [1], the binding result is reported as “no binding”.

On to RAPCDYYGTCVEL [phage isolate 002-36-H04], for which, in assay [1], the binding result is on record as “no binding”.

B2: synthetic peptide DX-101 (peptide)
peptide: AEGTGSQWECPYGLCWIQAPGK
modifications: not fully specified (bridges); printed as Ala-Glu-Gly-Thr-Gly-Ser-Gln-Trp-Glu-Cys-Pro-Tyr-Gly-Leu-Cys-Trp-Ile-Gln-Ala-Pro-Gly-Lys; cysteine pairing not given here
B2 displayed a Kd in assay [4] of 700 nM.

B3: phage isolate 002-35-E01 (peptide)
peptide: WELCSDENWLWCWPH
modifications: not fully specified (bridges); cysteine pairing not given here; also: displayed on M13 phage
notes: The two Cys are believed to form a disulfide
In the case of B3, in assay [1], the binding result is “no binding”.

B4: synthetic fibrin-binding peptide DX-303 (peptide)
peptide: Ac-WQPCPWESWTFCWDPGGGK(fluorescein)-NH2
modifications: not fully specified; printed as Ac-WQPCPWESWTFCWDPGGGK(fluorescein)-NH2; cysteine pairing not given here
For the molecule B4, the Kd in assay [2] and in assay [3] was 500 nM in each case.

In the case of WAPCQEEPWLFCFHG [phage isolate 002-37-D02], in assay [1], the binding result is listed as “no binding”.

For WQPCPWESWTFCWDP [phage isolate 002-37-C11], the binding result in assay [1] is “no binding”.

Source of the values: patent US20030143158A1 (DYAX, published 2003).
